The text below walks through data of PMC9335916 (ACS Central Science, 2022).

The target of the assay is trypsin from porcine pancreas (porcine, UniProt P00761 9-231). Nature of the assay: native MS.
trypsin from porcine pancreas, sequence (P00761 9-231): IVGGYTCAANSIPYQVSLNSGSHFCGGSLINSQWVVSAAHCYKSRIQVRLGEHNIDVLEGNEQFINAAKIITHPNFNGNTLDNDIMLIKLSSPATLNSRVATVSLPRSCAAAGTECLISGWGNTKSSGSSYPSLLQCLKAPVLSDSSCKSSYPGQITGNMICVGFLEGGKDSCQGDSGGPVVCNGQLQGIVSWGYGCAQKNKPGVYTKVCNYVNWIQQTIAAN

B1: Soybean trypsin inhibitor (natural protein)
chain: DFVLDNEGNPLENGGTYYILSDITAFGGIRAAPTGNERCPLTVVQSRNELDKGIGTIISSPYRIRFIAEGHPLSLKFDSFAVIMLCVGIPTEWSVVEDLPEGPAVKIGENKDAMDGWFRLERVSDDEFNNYKLVFCPQQAEDDKCGDIGISIDHDDGTRRLVVSKNKPLVVQFQKLDKESL
With B1, the “apparent Kd (without RF correction)” value stood at 27.1 ± 8.4 µM.
